{"source": "paper PMC11446282", "molecules": {"B1": {"name": "AMOTL2 R14: AMOTL2, R14 to alanine (protein, UniProt Q9Y2J4 1-779, looked up, variant R14A)", "Angiomotin-like protein 2": "MRTLEDSSGTVLHALIQEQLRYGNLTETRTLLAIQQQALRGGAGTGGTGSPQASLEILAPEDSQVLQQATRQEPQGQEHQGGENHLAENTLYRLCPQPSKGEELPTYEEAKAHSQYYAAQQAGTRPHAGDRDPRGAPGGSRRQDEALRELRHGHVRSLSERLLQLSLERNGARAPSHMSSSHSFPQLARNQQGPPLRGPPAEGPESRGPPPQYPHVVLAHETTTAVTDPRYRARGSPHFQHAEVRILQAQVPPVFLQQQQQYQYLQQSQEHPPPPHPAALGHGPLSSLSPPAVEGPVSAQASSATSGSAHLAQMEAVLRENARLQRDNERLQRELESSAEKAGRIEKLESEIQRLSEAHESLTRASSKREALEKTMRNKMDSEMRRLQDFNRDLRERLESANRRLASKTQEAQAGSQDMVAKLLAQSYEQQQEQEKLEREMALLRGAIEDQRRRAELLEQALGNAQGRAARAEEELRKKQAYVEKVERLQQALGQLQAACEKREQLELRLRTRLEQELKALRAQQRQAGAPGGSSGSGGSPELSALRLSEQLREKEEQILALEADMTKWEQKYLEERAMRQFAMDAAATAAAQRDTTLIRHSPQPSPSSSFNEGLLTGGHRHQEMESRLKVLHAQILEKDAVIKVLQQRSRRDPGKAIQGSLRPAKSVPSVFAAAAAGTQGWQGLSSSERQTADAPARLTTDRAPTEEPVVTAPPAAHAKHGSRDGSTQTEGPPDSTSTCLPPEPDSLLGCSSSQRAASLDSVATSRVQDLSDMVEILI"}, "B2": {"name": "AMOTL2 L15: AMOTL2, L15 to alanine (protein, UniProt Q9Y2J4 1-779, looked up, variant L15A)", "Angiomotin-like protein 2": "B1 Angiomotin-like protein 2 with A14R, L15A"}, "B3": {"name": "AMOTL2 I16: AMOTL2, I16 to alanine (protein, UniProt Q9Y2J4 1-779, looked up, variant I16A)", "Angiomotin-like protein 2": "B1 Angiomotin-like protein 2 with A14R, I16A"}, "B4": {"name": "AMOTL2 Q17: AMOTL2, Q17 to alanine (protein, UniProt Q9Y2J4 1-779, looked up, variant Q17A)", "Angiomotin-like protein 2": "B1 Angiomotin-like protein 2 with A14R, Q17A"}, "B5": {"name": "AMOTL2 E18: AMOTL2, E18 to alanine (protein, UniProt Q9Y2J4 1-779, looked up, variant E18A)", "Angiomotin-like protein 2": "B1 Angiomotin-like protein 2 with A14R, E18A"}, "B6": {"name": "AMOTL2 Q19: AMOTL2, Q19 to alanine (protein, UniProt Q9Y2J4 1-779, looked up, variant Q19A)", "Angiomotin-like protein 2": "B1 Angiomotin-like protein 2 with A14R, Q19A"}, "B7": {"name": "AMOTL2 L20: AMOTL2, L20 to alanine (protein, UniProt Q9Y2J4 1-779, looked up, variant L20A)", "Angiomotin-like protein 2": "B1 Angiomotin-like protein 2 with A14R, L20A"}, "B8": {"name": "AMOTL2 R21: AMOTL2, R21 to alanine (protein, UniProt Q9Y2J4 1-779, looked up, variant R21A)", "Angiomotin-like protein 2": "B1 Angiomotin-like protein 2 with A14R, R21A"}, "B9": {"name": "AMOTL2 Y22: AMOTL2, Y22 to alanine (protein, UniProt Q9Y2J4 1-779, looked up, variant Y22A)", "Angiomotin-like protein 2": "B1 Angiomotin-like protein 2 with A14R, Y22A"}, "B10": {"name": "AMOTL2 E27: AMOTL2, E27 to alanine (protein, UniProt Q9Y2J4 1-779, looked up, variant E27A)", "Angiomotin-like protein 2": "B1 Angiomotin-like protein 2 with A14R, E27A"}, "B11": {"name": "AMOTL2 T28: AMOTL2, T28 to alanine (protein, UniProt Q9Y2J4 1-779, looked up, variant T28A)", "Angiomotin-like protein 2": "B1 Angiomotin-like protein 2 with A14R, T28A"}, "B12": {"name": "AMOTL2 R29: AMOTL2, R29 to alanine (protein, UniProt Q9Y2J4 1-779, looked up, variant R29A)", "Angiomotin-like protein 2": "B1 Angiomotin-like protein 2 with A14R, R29A"}, "B13": {"name": "AMOTL2 T30: AMOTL2, T30 to alanine (protein, UniProt Q9Y2J4 1-779, looked up, variant T30A)", "Angiomotin-like protein 2": "B1 Angiomotin-like protein 2 with A14R, T30A"}, "B14": {"name": "AMOTL2 L31: AMOTL2, L31 to alanine (protein, UniProt Q9Y2J4 1-779, looked up, variant L31A)", "Angiomotin-like protein 2": "B1 Angiomotin-like protein 2 with A14R, L31A"}, "B15": {"name": "AMOTL2 L32: AMOTL2, L32 to alanine (protein, UniProt Q9Y2J4 1-779, looked up, variant L32A)", "Angiomotin-like protein 2": "B1 Angiomotin-like protein 2 with A14R, L32A"}, "B16": {"name": "CDCA4 L56: CDCA4, L56 to alanine (protein, UniProt Q9BXL8 1-241, looked up, variant L56A)", "Cell division …": "MFARGLKRKCVGHEEDVEGALAGLKTVSSYSLQRQSLLDMSLVKLQLCHMLVEPNACRSVLIANTVRQIQEEMTQDGTWRTVAPQAAERAPLDRLVSTEILCRAAWGQEGAHPAPGLGDGHTQGPVSDLCPVTSAQAPRHLQSSAWEMDGPRENRGSFHKSLDQIFETLETKNPSCMEELFSDVDSPYYDLDTVLTGMMGGARPGPCEGLEGLAPATPGPSSSCKSDLGELDHVVEILVET"}, "B17": {"name": "CDCA4 C57: CDCA4, C57 to alanine (protein, UniProt Q9BXL8 1-241, looked up, variant C57A)", "Cell division …": "B16 Cell division … with A56L, C57A"}, "B18": {"name": "CDCA4 R58: CDCA4, R58 to alanine (protein, UniProt Q9BXL8 1-241, looked up, variant R58A)", "Cell division …": "B16 Cell division … with A56L, R58A"}, "B19": {"name": "CDCA4 S59: CDCA4, S59 to alanine (protein, UniProt Q9BXL8 1-241, looked up, variant S59A)", "Cell division …": "B16 Cell division … with A56L, S59A"}, "B20": {"name": "CDCA4 V60: CDCA4, V60 to alanine (protein, UniProt Q9BXL8 1-241, looked up, variant V60A)", "Cell division …": "B16 Cell division … with A56L, V60A"}, "B21": {"name": "CDCA4 L61: CDCA4, L61 to alanine (protein, UniProt Q9BXL8 1-241, looked up, variant L61A)", "Cell division …": "B16 Cell division … with A56L, L61A"}, "B22": {"name": "CDCA4 I62: CDCA4, I62 to alanine (protein, UniProt Q9BXL8 1-241, looked up, variant I62A)", "Cell division …": "B16 Cell division … with A56L, I62A"}, "B23": {"name": "CDCA4 N64: CDCA4, N64 to alanine (protein, UniProt Q9BXL8 1-241, looked up, variant N64A)", "Cell division …": "B16 Cell division … with A56L, N64A"}, "B24": {"name": "CDCA4 T65: CDCA4, T65 to alanine (protein, UniProt Q9BXL8 1-241, looked up, variant T65A)", "Cell division …": "B16 Cell division … with A56L, T65A"}, "B25": {"name": "CDCA4 V66: CDCA4, V66 to alanine (protein, UniProt Q9BXL8 1-241, looked up, variant V66A)", "Cell division …": "B16 Cell division … with A56L, V66A"}, "B26": {"name": "CDCA4 L42: CDCA4, L42 to alanine (protein, UniProt Q9BXL8 1-241, looked up, variant L42A)", "Cell division …": "B16 Cell division … with L42A, A56L"}, "B27": {"name": "CDCA4 V43: CDCA4, V43 to alanine (protein, UniProt Q9BXL8 1-241, looked up, variant V43A)", "Cell division …": "B16 Cell division … with V43A, A56L"}}, "note": "Where a chain is given by its changes, count along the chain named."}
{"tested_on": "PP2A-B55α", "test": "Single alanine mutational scan, YFP-tagged interactors immunoprecipitated from HeLa cells, Western blot", "type": "binding, human", "conditions": "single alanine mutant of YFP-tagged AMOTL2", "method": "(§1) Standard cloning techniques were used throughout. Point mutations were introduced by whole plasmid polymerase chain reaction (PCR). All constructs were fully sequenced. Synthetic DNA was purchased from GeneArt, Life Technologies and cloned into pcDNA5/FRT/TO (Invitrogen) expression vector containing YFP, resulting in the indicated YFP fusion proteins. These constructs were transiently transfected into HeLa cells 24 hours before harvesting cells. Cells were lysed in lysis buffer [50 mM tris-HCl (pH 7.5), 50 mM NaCl, 1 mM EDTA, 1 mM […], and 0.1% NP-40]. Complexes were immunoprecipitated at 4°C in lysis buffer with green fluorescent protein (GFP)–Trap (ChromoTek) and washed in lysis buffer. Precipitated protein complexes were washed three times in lysis buffer, eluted in 2× SDS sample buffer, and subjected to Western blotting or MS as indicated.", "units": {"Experimental % binding": "%"}}
{"molecule": "B1", "Experimental % binding": 15}
{"molecule": "B2", "Experimental % binding": 32}
{"molecule": "B3", "Experimental % binding": 32}
{"molecule": "B4", "Experimental % binding": 143}
{"molecule": "B5", "Experimental % binding": 133}
{"molecule": "B6", "Experimental % binding": 120}
{"molecule": "B7", "Experimental % binding": 98}
{"molecule": "B8", "Experimental % binding": 60}
{"molecule": "B9", "Experimental % binding": 25}
{"molecule": "B10", "Experimental % binding": 165}
{"molecule": "B11", "Experimental % binding": 4}
{"molecule": "B12", "Experimental % binding": 4}
{"molecule": "B13", "Experimental % binding": 85}
{"molecule": "B14", "Experimental % binding": 115}
{"molecule": "B15", "Experimental % binding": 118}
{"tested_on": "PP2A-B55α", "test": "Single alanine mutational scan, YFP-tagged interactors immunoprecipitated from HeLa cells, Western blot", "type": "binding, human", "conditions": "single alanine mutant of YFP-tagged CDCA4", "method": "as §1", "units": {"Experimental % binding": "%"}}
{"molecule": "B16", "Experimental % binding": 42}
{"molecule": "B17", "Experimental % binding": 91}
{"molecule": "B18", "Experimental % binding": 37}
{"molecule": "B19", "Experimental % binding": 64}
{"molecule": "B20", "Experimental % binding": 47}
{"molecule": "B21", "Experimental % binding": 28}
{"molecule": "B22", "Experimental % binding": 7}
{"molecule": "B23", "Experimental % binding": 57}
{"molecule": "B24", "Experimental % binding": 28}
{"molecule": "B25", "Experimental % binding": 38}
{"molecule": "B26", "Experimental % binding": 129}
{"molecule": "B27", "Experimental % binding": 81}
